Source: paper PMC4890720 (Methods in molecular biology (Clifton, N.J.), 2012)

Molecular target: thioredoxin (1–73) (E. coli, UniProt P0AA25 2-74 = thioredoxin)
Experiment: magic angle spinning solid-state NMR

Sequence of thioredoxin (1–73) (P0AA25 2-74): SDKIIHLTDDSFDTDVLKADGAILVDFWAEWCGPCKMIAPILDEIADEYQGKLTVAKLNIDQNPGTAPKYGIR

binding result: binds
Binder: GIPTLLLFKNGEVAATKVGALSKGQLKEFLDANLA (domain or fragment, E. coli, UniProt P0AA25 75-109, looked up) [thioredoxin (74–108)]
